Measured values reported in article PMC3701795, “Heterologous expression and characterization of a malathion-hydrolyzing carboxylesterase from a thermophilic bacterium, Alicyclobacillus tengchongensis” (Biotechnology Letters, 2013).

System: CC(=O)Oc1ccc2ccccc2c1
Test: purified protein
Conditions: pH 7 potassium phosphate, 60 °C, 0.1-0.95 mM substrate

## D1CarE5 (Alicyclobacillus sp. D-1)
  Km: 1000 µM
